Patent US20210269525A1 (BIOCYTOGEN PHARMACEUTICALS BEIJING, published 2021)
Numbering of substitutions follows the chain as printed. One block for each binder: values may come before it.

Assays:
[1] = target: T1, human CD3e (T-cell surface glycoprotein CD3 epsilon chain) (human, UniProt P07766 23-207); assay: flow cytometry, human PBMC, antibody 10 µg/mL, anti-human IgG Fc-Alexa Fluor647 (1:500), anti-hTcRβ-PerCP (1:30)
T1 construct: Target of the anti-hCD3e antibodies on human PBMC, Jurkat cells and cells expressing human CD3e; on T cells it is part of the CD3/TCR complex; also called hCD3e; CD3e on human PBMC
Method: (§1) PBMC cells were collected from a human subject. After being thawed, the cells were cultured for 3-4 hours. The medium was then discarded, and the cells were resuspended in phosphate-buffered saline (PBS). The cell concentration was then adjusted to 2×10⁶/25 μl PBS.
A 96-well plate was prepared. 25 ul of cell suspension was added to each well. Anti-hCD3e antibodies with different combinations of humanized 1B1 heavy chain variants and humanized 1B1 light chain variants were diluted to 20 ug/ml (2×) in PBS, and were added to the 96-well plate. The cells and the antibodies were incubated. After centrifuge, the residues were discarded. The samples were washed again. 25 ul of PBS was then added to each well to resuspend cells.
(§2) Anti-human IgG Fc-Alexa Fluror647 (1:500) and anit-hTcRβ PerCP (1:30) were then added to each well. The cells and the antibodies were incubated and then the cells were washed again by PBS. 300 ul of PBS was then added to each well to resuspend the cells. FACS was performed.

[2] = target: T1, human CD3e (T-cell surface glycoprotein …); assay: flow cytometry, human PBMC, antibody 0.1 µg/mL, anti-human IgG Fc-Alexa Fluor647 (1:500), anti-hTcRβ-PerCP (1:30)
Method: as §1
(§3) A 96-well plate was prepared. 25 ul of cell suspension was added to each well. […] The cells and the antibodies were incubated. After centrifuge, the residues were discarded. The samples were washed again. 25 ul of PBS was then added to each well to resuspend cells.
as §2

[3] = target: T1, human CD3e (T-cell surface glycoprotein …); assay: flow cytometry, human PBMC, antibody 1 µg/mL, anti-human IgG Fc-Alexa Fluor647 (1:500), anti-hTcRβ-PerCP (1:30)
Method: as §1, §3, §2

[4] = target: T2, Histidine-tagged human CD3e protein (human, UniProt P07766 23-126); assay: SPR (Biacore), human CD3e
T2 construct: also called hCD3e-His; not shown: His tag

[5] = target: T3, Cynomolgus CD3 epsilon Protein, His Tag (Acrobiosystems, Cat #CDE-05226) (cynomolgus (Macaca fascicularis), UniProt Q95LI5 22-117); assay: SPR (Biacore), cynomolgus CD3e His tag
T3 construct: also called monkey CD3e; not shown: His tag
T3 sequence: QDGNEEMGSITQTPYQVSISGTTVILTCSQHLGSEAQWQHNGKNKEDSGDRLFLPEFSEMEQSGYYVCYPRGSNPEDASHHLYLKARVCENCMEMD
Method: The binding affinity of the anti-hCD3e antibodies with monkey CD3e (Cynomolgus CD3 epsilon Protein (SEQ ID NO: 39 AA Gln 22-Asp 117), His Tag, Acrobiosystems, Cat #CDE-05226) were also measured using surface plasmon resonance (SPR) using Biacore (Biacore, INC, Piscataway N.J.) by the methods as described in the examples.

[6] = target: T1, human CD3e (T-cell surface glycoprotein …); assay: cell-based or functional assay
[7] = target: T4, monkey CD3e (Macaca fascicularis) on PBMC (Macaca fascicularis, UniProt Q95LI5 22-198); assay: flow cytometry, Macaca fascicularis PBMC, antibody concentration not given, anti-human IgG Fc-Alexa Fluor647 (1:500), anti-hTcRβ-PerCP (1:30)
T4 construct: Target on PBMC from Macaca fascicularis; also called mfCD3e; monkey PBMC
T4 sequence (Q95LI5 22-198 limits assumed): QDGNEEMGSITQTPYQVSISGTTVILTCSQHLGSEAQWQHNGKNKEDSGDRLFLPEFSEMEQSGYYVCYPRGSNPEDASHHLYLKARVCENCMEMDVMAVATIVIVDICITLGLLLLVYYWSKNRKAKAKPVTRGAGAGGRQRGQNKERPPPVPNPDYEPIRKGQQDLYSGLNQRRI
Method: A 96-well plate was prepared. 25 ul of cell suspension was added to each well. Anti-hCD3 antibodies were added to the 96-well plate. The cells and the antibodies were incubated for 15 minutes at 4° C. 185 ul PBS was then added to each well. After centrifuge at 2000 rpm for 5 minutes, the medium was discarded. The samples were washed again. 25 ul of PBS was then added to resuspend cells.
Anti-human IgG Fc-Alexa Fluror647 (1:500) and anti-hTcRβ PerCP (1:30) were then added to each well. The cells and the antibodies were incubated for 15 minutes at 4° C. 185 ul PBS was then added to each well. After centrifuge, the residues were discarded. The samples were washed again. 25 ul of PBS was then added to resuspend cells. […] In contrast, anti-hTcRβ PerCP cannot bind to monkey PBMC.

B1: 1B1-H2K2-IgG1-LALA (antibody, V domains shown)
VH: QVQLVQSGAEVKKPGASVKLSCKASGYTFTSYWMHWVRQAPGQGLEWIGNIYPDSGTTNYGEKFKTRVTLTVDTSTSTAYMELSSLRSEDTAVYYCTRDTSGQYYFDYWGQGTLVTVSS
VL: DIVMTQSPDSLAVSAGERVTMNCKSSQSLLNSRTRKNYLAWYQHKPGQSPKLLIYWASTRESGVPDRFSGSGSGTDFTLTISSLQAEDVAVYYCVQSFSLRAFGGGTKVEIK
notes: Humanized; human IgG1 with LALA mutations; also called H2K2 (humanized 1B1)
upper left quadrant, percent of cells AF647+ / hTcRβ-PerCP- [1]: 9.49%
upper right quadrant, percent of cells AF647+ / hTcRβ-PerCP+ [1]: 63.3%
upper left quadrant, percent of cells AF647+ / hTcRβ-PerCP- [2]: 14.1%
upper right quadrant, percent of cells AF647+ / hTcRβ-PerCP+ [2]: 47.1%
upper left quadrant, percent of cells AF647+ / hTcRβ-PerCP- [3]: 10.2%
upper right quadrant, percent of cells AF647+ / hTcRβ-PerCP+ [3]: 61%
Kd [4]: 1.65 nM
koff [4]: 0.000881 s⁻¹
kon [4]: 535000 M⁻¹ s⁻¹
Kd [5]: 6.66 nM
koff [5]: 0.000665 s⁻¹
kon [5]: 99800 M⁻¹ s⁻¹
EC50, luciferase of Jurkat-Luc-NFAT cells; antibody from supernatant [6]: > 5.24 µg/mL
upper left quadrant, percent of cells AF647+ / hTcRβ-PerCP- [7]: 84.5%
upper right quadrant, percent of cells AF647+ / hTcRβ-PerCP+ [7]: 11.1%

B3: 1B1-H3K2-IgG1-LALA (antibody, V domains shown)
VH: B1 VH with A40R, P41H
VL: B1 VL
notes: Humanized; human IgG1 with LALA mutations; also called H3K2 (humanized 1B1)
upper left quadrant, percent of cells AF647+ / hTcRβ-PerCP- [1]: 9.23%
upper right quadrant, percent of cells AF647+ / hTcRβ-PerCP+ [1]: 62%
upper left quadrant, percent of cells AF647+ / hTcRβ-PerCP- [2]: 10.2%
upper right quadrant, percent of cells AF647+ / hTcRβ-PerCP+ [2]: 57.7%
upper left quadrant, percent of cells AF647+ / hTcRβ-PerCP- [3]: 11.4%
upper right quadrant, percent of cells AF647+ / hTcRβ-PerCP+ [3]: 58.1%
Kd [4]: 2.96 nM
koff [4]: 0.00062 s⁻¹
kon [4]: 209000 M⁻¹ s⁻¹
EC50, luciferase of Jurkat-Luc-NFAT cells; antibody from supernatant [6]: > 3.08 µg/mL
upper left quadrant, percent of cells AF647+ / hTcRβ-PerCP- [7]: 89.5%
upper right quadrant, percent of cells AF647+ / hTcRβ-PerCP+ [7]: 7.53%

Further binders by falling Kd [4], results first:

upper left quadrant, percent of cells AF647+ / hTcRβ-PerCP- [1]: 8.53%
upper right quadrant, percent of cells AF647+ / hTcRβ-PerCP+ [1]: 65.4%
upper left quadrant, percent of cells AF647+ / hTcRβ-PerCP- [2]: 9.82%
upper right quadrant, percent of cells AF647+ / hTcRβ-PerCP+ [2]: 59.2%
upper left quadrant, percent of cells AF647+ / hTcRβ-PerCP- [3]: 10.8%
upper right quadrant, percent of cells AF647+ / hTcRβ-PerCP+ [3]: 61.5%
Kd [4]: 1.49 nM
koff [4]: 0.000862 s⁻¹
kon [4]: 579000 M⁻¹ s⁻¹
Kd [5]: 7.03 nM
koff [5]: 0.000999 s⁻¹
kon [5]: 142000 M⁻¹ s⁻¹
EC50, luciferase of Jurkat-Luc-NFAT cells; antibody from supernatant [6]: > 2.79 µg/mL
upper left quadrant, percent of cells AF647+ / hTcRβ-PerCP- [7]: 71%
upper right quadrant, percent of cells AF647+ / hTcRβ-PerCP+ [7]: 25.6%
B2: 1B1-H2K1-IgG1-LALA (antibody, V domains shown)
VH: B1 VH
VL: B1 VL with V19A
notes: Humanized; human IgG1 with LALA mutations; also called H2K1 (humanized 1B1)

upper left quadrant, percent of cells AF647+ / hTcRβ-PerCP- [1]: 10.7%
upper right quadrant, percent of cells AF647+ / hTcRβ-PerCP+ [1]: 62.4%
upper left quadrant, percent of cells AF647+ / hTcRβ-PerCP- [2]: 11.9%
upper right quadrant, percent of cells AF647+ / hTcRβ-PerCP+ [2]: 54.7%
upper left quadrant, percent of cells AF647+ / hTcRβ-PerCP- [3]: 10.2%
upper right quadrant, percent of cells AF647+ / hTcRβ-PerCP+ [3]: 61.9%
Kd [4]: 1.16 nM
koff [4]: 0.000583 s⁻¹
kon [4]: 502000 M⁻¹ s⁻¹
EC50, luciferase of Jurkat-Luc-NFAT cells; antibody from supernatant [6]: > 4.54 µg/mL
upper left quadrant, percent of cells AF647+ / hTcRβ-PerCP- [7]: 87.1%
upper right quadrant, percent of cells AF647+ / hTcRβ-PerCP+ [7]: 10.1%
B4: 1B1-H4K3-IgG1-LALA (antibody, V domains shown)
VH: B1 VH with K12V, A40R, P41H, V68G
VL: B1 VL with L84V, V109L
notes: Humanized; human IgG1 with LALA mutations; also called H4K3 (humanized 1B1)
